# Data from patent publication US20190092852A1 (Genentech, published 2019).
# T1: cynomolgus monkey N-terminal 6-His-tagged and C-terminal Avi-tagged IL-33 (S112-T270) (cynomolgus monkey)
# T1 chain: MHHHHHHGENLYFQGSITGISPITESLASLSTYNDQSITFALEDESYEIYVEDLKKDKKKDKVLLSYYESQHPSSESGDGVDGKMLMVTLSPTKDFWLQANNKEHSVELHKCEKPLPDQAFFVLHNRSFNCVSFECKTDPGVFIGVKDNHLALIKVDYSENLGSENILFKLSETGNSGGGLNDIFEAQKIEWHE
# T2: cyno IL-33 N-His (cynomolgus monkey)
# T2 chain: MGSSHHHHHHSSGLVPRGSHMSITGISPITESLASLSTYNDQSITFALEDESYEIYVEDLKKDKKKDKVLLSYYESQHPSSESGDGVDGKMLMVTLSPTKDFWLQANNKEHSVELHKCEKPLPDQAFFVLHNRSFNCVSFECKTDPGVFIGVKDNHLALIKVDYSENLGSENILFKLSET
# T3: biotinylated cyno IL-33 (cynomolgus monkey, UniProt A0A2K5W3I1 112-269, biotin-labeled with EZ-LINK NHS-PEG4-Biotin)
# T3 construct: also called biotin-cyIL-33
# T3 sequence: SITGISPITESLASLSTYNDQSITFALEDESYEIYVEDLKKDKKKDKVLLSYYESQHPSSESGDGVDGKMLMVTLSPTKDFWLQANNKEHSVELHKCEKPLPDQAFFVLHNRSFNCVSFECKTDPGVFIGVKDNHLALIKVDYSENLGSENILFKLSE
# T4: human ST2L on HEK-BLUE IL-33/IL-1beta cells (human, UniProt Q01638 19-556)
# T4 sequence: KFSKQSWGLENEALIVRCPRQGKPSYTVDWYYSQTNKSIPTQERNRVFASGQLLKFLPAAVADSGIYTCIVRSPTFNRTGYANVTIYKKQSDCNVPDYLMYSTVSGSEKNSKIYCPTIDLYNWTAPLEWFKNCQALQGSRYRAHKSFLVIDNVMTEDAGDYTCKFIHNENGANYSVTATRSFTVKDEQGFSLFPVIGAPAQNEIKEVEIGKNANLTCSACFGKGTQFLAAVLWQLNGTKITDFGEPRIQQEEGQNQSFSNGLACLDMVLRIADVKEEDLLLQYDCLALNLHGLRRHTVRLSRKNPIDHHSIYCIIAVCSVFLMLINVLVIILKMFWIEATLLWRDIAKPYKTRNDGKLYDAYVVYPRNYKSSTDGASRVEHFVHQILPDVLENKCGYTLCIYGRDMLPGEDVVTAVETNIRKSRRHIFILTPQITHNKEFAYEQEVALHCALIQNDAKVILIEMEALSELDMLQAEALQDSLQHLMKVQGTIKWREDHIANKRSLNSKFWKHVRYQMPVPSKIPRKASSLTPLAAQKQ
# Legend:
# [1] = target: T1, cynomolgus monkey N-terminal …; experiment: cell-based or functional assay
# cyno IL-33 N-His = target: T2, cyno IL-33 N-His; experiment: SPR Biacore T200, 25 C
# Method in brief: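 Antibodies captured via anti-Fc on CM5 chip; IL-33 injected at 3.7–100 nM (three-fold series), 4 min association, 10 min dissociation, 30 μl/min, ADA pH 7.4 buffer with 0.15 M NaCl, EDTA, Tween-20, at 25 °C or 37 °C. KD = koff/kon from 1:1 Langmuir fit; t1/2 = ln(2)/(60*koff).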
# biotinylated cyno IL-33 = target: T3, biotinylated cyno IL-33; experiment: competitive ELISA, biotin-cyIL-33 to coated hST2-Fc
# Protocol: The ability of the anti-IL-33 antibody 10C12.38.H6.87Y.58I IgG4 and each anti-IL-33 antibody listed in Table 5 (RG1-RG20) to block either human IL-33 or cyno IL-33 binding to human ST2 receptor was tested in a competitive binding ELISA. Briefly, 1 μg/ml of recombinant human ST2-Fc chimera protein prepared in coating buffer (50 mM sodium carbonate, pH 9.6) was coated on a 384-well MAXISORP® plate (Nalgene Nunc International; Rochester, N.Y.) and incubated overnight at 4° C. On the next day, non-specific binding was blocked with PBS containing 0.5% (w/v) solution of bovine serum albumin (BSA). Fixed concentrations of biotinylated human or cyno IL-33 prepared in assay buffer (25 mM PBS, pH 7.2, 0.1% BSA, 0.05% TWEEN®-20) were mixed with an equal volume of serially-diluted anti-IL-33 antibodies or assay buffer alone and incubated for 1 h at room temperature. The final assay concentrations of biotinylated human IL-33 or cyno IL-33 were 20 pM and 45 pM, respectively, and the final assay concentration of each antibody ranged from 0-300 nM. The pre-mixed solutions were added to the ST2-Fc coated plate and incubated for 1 h at room temperature. The binding of biotinylated IL-33 to coated ST2-Fc was detected by the sequential addition of Streptavidin Poly-HRP80 (Fitzgerald; Buckinghamshire, UK) and 3,3′,5,5′-tetramethyl benzidine (TMB) Microwell Peroxidase Substrate System (KPL; Gaithersburg, Md.). The absorbance (450 nm) was recorded using a […] ASCENT® plate reader (Thermo Scientific; Rockford, Ill.). The binding activity (%) of biotin-IL-33 to ST2 in the presence of anti-IL-33 was plotted as a function of antibody concentration. The data generated were fitted to a four-parameter equation to determine IC₅₀ values for each antibody (FIGS. 25A and 25B) using Prism software (Graphpad Software; La Jolla, Calif.). The maximum blocking (%) of each antibody was calculated as the ratio of the reduction in signal measured in the presence of antibody relative to the difference between the signal with IL-33 alone and background measurements.
# [2] = target: T4, human ST2L on HEK-BLUE IL-33/IL-1beta …; experiment: cell-based or functional assay
HEK-BLUE SEAP reporter IC50 [1],Kd (cyno IL-33 N-His),koff (cyno IL-33 N-His),kon (cyno IL-33 N-His),t1/2 (cyno IL-33 N-His),IC50 (biotinylated cyno IL-33),Maximum Blocking (biotinylated cyno IL-33),"EC50 (SEAP reporter OD 620, HEK-BLUE IL-33/IL-1beta cells) [2]",Binder
6.1 nM,2.98 nM,0.000606 s⁻¹,203000 M⁻¹ s⁻¹,19 min,19 nM,85%,,"H1M9565N (antibody, V domains shown) VH: QVTLKESGPVLVKPTESLTLTCSVSGFSLSNVRMGVSWIRQSPGKALEWLAHIFSNDEKSYTTSLKTRLTISKDTSRSQVVLTMTDMDPGDTATYYCARIRNLAFNYWGQGTLVTVSS VL: not shown"
,,,,,,,0.004 nM,"Human IL-33 N-His Biotinylated (ligand, biotinylated, sites not given) ligand: MGSSHHHHHHSSGLVPRGSHMSITGISPITEYLASLSTYNDQSITFALEDESYEIYVEDLKKDEKKDKVLLSYYESQHPSNESGDGVDGKMLMVTLSPTKDFWLHANNKEHSVELHKCEKPLPDQAFFVLHNMHSNCVSFECKTDPGVFIGVKDNHLALIKVDSSENLCTENILFKLSET"
,,,,,,,0.0098 nM,Human IL-33 N-His C-Avi (ligand) ligand: MHHHHHHGENLYFQGSITGISPITEYLASLSTYNDQSITFALEDESYEIYVEDLKKDEKKDKVLLSYYESQHPSNESGDGVDGKMLMVTLSPTKDFWLHANNKEHSVELHKCEKPLPDQAFFVLHNMHSNCVSFECKTDPGVFIGVKDNHLALIKVDSSENLCTENILFKLSETGNSGGGLNDIFEAQKIEWHE
